Test results as given in patent US7763418B2, “Detection of Rho proteins” (Cytoskeleton, Inc., priority 2005, dated 2010).

Tests used:
RhoA [1] = assay: GST-Rhotekin-RBD pull-down assay of calpeptin treated HeLa cell lysates; type: cell-based; settings: calpeptin 30 minutes, 500 μg lysate
RhoA [2] = assay: RhoA G-LISA of calpeptin treated HeLa cell lysates; type: cell-based; settings: calpeptin 30 minutes
Experimental: Active Rho protein (typically 7-15 μg total cell lysate or 1-5 ng of constitutively active recombinant protein) were either added directly to the effector bound G-LISA plate (Rac1 and Cdc42 G-LISAs) or diluted with an equal volume of Binding Buffer (20% PEG 8000, Sigma, St. Louis, Mo.) prior to adding to effector bound plates (RhoA G-LISA). The reactions were incubated for 30 minutes at 4° C. on a microtiter titer plate shaker after which wells were washed once with 200 μl of PBST (PBS pH 7.2, 0.05% Tween-20) and immediately treated with 200 μl of Antigen Presenting Buffer (1% trichloroacetic acid (TCA)) for 2-5 minutes at room temperature. Wells were then washed three times with 200 μl each of PBST and primary antibody is added typically at 1 μg/ml (RhoA specific), 0.25 μg/ml (Rac1 specific), 1 μg/ml (Cdc42 specific) and incubated at room temperature for 45 minutes (incubation at 4° C. gave similar results). […] After three washes each of 200 μl PBST the activated Rho proteins are detected using absorbance or luminescence detection as described below. […]
Referring to FIG. 10, 25 μl of serum starved or Calpeptin treated (RhoA activated) Hela cell lysate at concentration of 4, 2, 1, 0.5, 0.25, 0.12, 0.06 mg/ml were mixed with same volume of Binding Buffer and subjected to RhoA G-LISA assay followed by absorbance detection. […] All readings had buffer only background subtracted. […]

Rac1 = Rac1 (Homo sapiens, UniProt P63000); settings: read-out: published affinity Rac1:PAK; cited from earlier work
RhoA (63L) = molecular target: T1, RhoA (63L) (Homo sapiens, UniProt P61586, Q63L); assay: G-LISA on effector-GBD plates with constitutively active RhoA; type: binding; settings: 5 ng constitutively active RhoA; detection with the plate's GTPase specific antibody
T1 construct: purchased Cytoskeleton Inc. R6301
Experimental: (§1) Effector-GBD peptide (ROCK1, POSH or WASP, see Table 2) was diluted in coating buffer (PBS pH 7.2, plus 1 mM EDTA) to a final concentration 0.05 mg/ml and 5 μg of peptide was added to the wells of maleimide plates (Corning Inc., Catalog #2510). Plates were incubated at 21° C. for 2 hours, washed twice in PBS pH 7.2. Plates were blocked for 1 hour at room temperature with milk (typically 0.1-5%, depending upon effector-GBD). After two washes with PBS (pH 7.2), Lyophilization Buffer was added to each well (5% sucrose and 1% dextran) and the plates were lyophilized and stored desiccated at 4° C. […]
(§2) Active Rho protein (typically 7-15 μg total cell lysate or 1-5 ng of constitutively active recombinant protein) were either added directly to the effector bound G-LISA plate (Rac1 and Cdc42 G-LISAs) or diluted with an equal volume of Binding Buffer (20% PEG 8000, Sigma, St. Louis, Mo.) prior to adding to effector bound plates (RhoA G-LISA). […] After three washes each of 200 μl PBST the activated Rho proteins are detected using absorbance or luminescence detection as described below.
Referring to FIG. 2A, lysis buffer only (Blank), 5 ng of RhoA (63L), Cdc42 (61L) or Rac1 (61L) were subjected to a RhoA G-LISA assay as detailed in materials and methods, and RhoA signal was detected by luminometry as described in materials and methods. […]

Rac1 (61L) = molecular target: T2, Rac1 (61L) (Homo sapiens, UniProt P63000, Q61L); assay: G-LISA on effector-GBD plates with constitutively active Rac1; type: binding; settings: 5 ng constitutively active Rac1; detection with the plate's GTPase specific antibody
T2 construct: His; purchased Cytoskeleton Inc. R6101
Experimental: as §1, §2
Referring to FIG. 2B, lysis buffer only (Blank), 5 ng of Rac1 (61L), or RhoA (63L) were subjected to a Rac1 G-LISA assay as detailed in materials and methods (Example 2), and Rac1 signal was detected by absorbance at 490 nm as described in materials and methods (Example 2). […]

Cdc42 (61L) = molecular target: T3, Cdc42 (61L) (Homo sapiens, UniProt P60953, Q61L); assay: G-LISA on effector-GBD plates with constitutively active Cdc42; type: binding; settings: 5 ng constitutively active Cdc42; detection with the plate's GTPase specific antibody
T3 construct: His; purchased Cytoskeleton Inc. C6101
Experimental: as §1, §2
Referring to FIG. 2C, lysis buffer only (Blank), 5 ng of Cdc42 (61L) or Rac1 (61L) were subjected to a Cdc42 G-LISA assay as detailed in materials and methods (Example 2), and Cdc42 signal was detected by absorbance at 490 nm as described in materials and methods (Example 2).

T1 sequence (P61586 whole entry Q63L): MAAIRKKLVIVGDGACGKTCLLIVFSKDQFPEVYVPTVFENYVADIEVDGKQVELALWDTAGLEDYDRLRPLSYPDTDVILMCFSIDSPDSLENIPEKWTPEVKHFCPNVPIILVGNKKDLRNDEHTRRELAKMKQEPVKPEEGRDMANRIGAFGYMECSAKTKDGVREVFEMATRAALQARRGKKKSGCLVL
T3 sequence (P60953 whole entry Q61L): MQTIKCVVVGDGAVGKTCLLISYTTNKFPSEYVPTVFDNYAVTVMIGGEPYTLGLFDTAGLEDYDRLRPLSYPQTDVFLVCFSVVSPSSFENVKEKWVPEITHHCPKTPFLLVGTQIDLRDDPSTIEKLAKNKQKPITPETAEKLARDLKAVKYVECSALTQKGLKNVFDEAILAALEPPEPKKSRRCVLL

Molecule: CCCC[C@@H](C=O)NC(=O)[C@H](CC(C)C)NC(=O)OCc1ccccc1 [calpeptin]
- RhoA fold activation above serum starved lysate, pull-down densitometry (RhoA [1]): approximately 2 fold
- RhoA fold activation versus serum starved, G-LISA (RhoA [2]; lysate 0.25 mg/ml to 2 mg/ml (6.25-50 μg)): approximately 2 fold
- RhoA fold activation versus serum starved, G-LISA (RhoA [2]; lysate 4 mg/ml (100 μg)): 1.7 fold

B1: PAK-GST: GST-tagged GTPase Binding Domain of human PAK1 (amino acids 68-151), Rac1/Cdc42 effector (protein)
chain: KEKERPEISLPSDFEHTIHVGFDAVTGEFTGMPEQWARLLQTSNITKSEQKKNPQAVLDVLEFYNSKKTSNSQKYMSFTDKSAEC
modifications: left off: a dimerising Fc or GST
- Kd (Rac1): ~20 nM

B2: rhotekin-Cys: synthetic rhotekin-GBD, three internal cysteines replaced, cysteine at carboxy terminal (protein)
chain: ILEDLNMLYIRQMALSLEDTELQRKLDHEIRMRDGAEKLLAALSQREQALEATKSLLVSNSRILSYMGELQRRKEAQVLEKTGRRCS
- G-LISA signal above background (buffer only) (RhoA (63L)): 6 fold

B3: WASP: Histidine-tagged GBD of human WASP (amino acids 201-321), carboxy terminal cysteine, linked to maleimide plate (protein)
chain: DIQNPDITSSRYRGLPAPGPSPADKKRSGKKKISKADIGAPSGFKHVSHVGWDPQNGFDVNNLDPDLRSLFSRAGISEAQLTDAETSKLIYDFIEDQGGLEAVRQEMRRQEPLPPPPPPSRC
modifications: left off: small tags and cut ends
notes: Histidine-tagged GBD of human WASP (amino acids 201-321), carboxy terminal cysteine, linked to maleimide plate
- G-LISA signal above background (buffer only) (Rac1 (61L)): did not give a signal above background

B4: ROCK1-GBD: Histidine-tagged GBD of human ROCK1 (amino acids 847-1024), carboxy terminal cysteine, linked to maleimide plate (protein)
chain: EAEQYFSTLYKTQVKELKEEIEEKNRENLKKIQELQNEKETLATQLDLAETKAESEQLARGLLEEQYFELTQESKKAASRNRQEITDKDHTVSRLEEANSMLTKDIEILRRENEELTEKMKKAEEEYKLEKEEEISNLKAAFEKNINTERTLKTQAVNKLAEIMNRKDFKIDRKKANTC
modifications: left off: small tags and cut ends
- G-LISA signal above background (buffer only) (Cdc42 (61L)): did not give a signal above background
- G-LISA signal above background (buffer only) (Rac1 (61L)): did not give a signal above background

B5: POSH: Histidine-tagged GBD of human POSH (amino acids 291-363) linked to maleimide plate (protein, UniProt Q7Z6J0 1-888, looked up)
E3 ubiquitin-protein ligase …: MDESALLDLLECPVCLERLDASAKVLPCQHTFCKRCLLGIVGSRNELRCPECRTLVGSGVEELPSNILLVRLLDGIKQRPWKPGPGGGSGTNCTNALRSQSSTVANCSSKDLQSSQGGQQPRVQSWSPPVRGIPQLPCAKALYNYEGKEPGDLKFSKGDIIILRRQVDENWYHGEVNGIHGFFPTNFVQIIKPLPQPPPQCKALYDFEVKDKEADKDCLPFAKDDVLTVIRRVDENWAEGMLADKIGIFPISYVEFNSAAKQLIEWDKPPVPGVDAGECSSAAAQSSTAPKHSDTKKNTKKRHSFTSLTMANKSSQASQNRHSMEISPPVLISSSNPTAAARISELSGLSCSAPSQVHISTTGLIVTPPPSSPVTTGPSFTFPSDVPYQAALGTLNPPLPPPPLLAATVLASTPPGATAAAAAAGMGPRPMAGSTDQIAHLRPQTRPSVYVAIYPYTPRKEDELELRKGEMFLVFERCQDGWFKGTSMHTSKIGVFPGNYVAPVTRAVTNASQAKVPMSTAGQTSRGVTMVSPSTAGGPAQKLQGNGVAGSPSVVPAAVVSAAHIQTSPQAKVLLHMTGQMTVNQARNAVRTVAAHNQERPTAAVTPIQVQNAAGLSPASVGLSHHSLASPQPAPLMPGSATHTAAISISRASAPLACAAAAPLTSPSITSASLEAEPSGRIVTVLPGLPTSPDSASSACGNSSATKPDKDSKKEKKGLLKLLSGASTKRKPRVSPPASPTLEVELGSAELPLQGAVGPELPPGGGHGRAGSCPVDGDGPVTTAVAGAALAQDAFHRKASSLDSAVPIAPPPRQACSSLGPVLNESRPVVCERHRVVVSYPPQSEAELELKEGDIVFVHKKREDGWFKGTLQRNGKTGLFPGSFVENI
- G-LISA signal above background (buffer only) (RhoA (63L)): barely above background
